Our source for the Kd values is article PMC2847151 (2009).

Assay [1] deals with Abl SH3 (Homo sapiens, UniProt P00519). Description: fluorescence titration.
The target of assay [2] is T1, Lck SH3 (Homo sapiens, UniProt P06239).
T1 chain: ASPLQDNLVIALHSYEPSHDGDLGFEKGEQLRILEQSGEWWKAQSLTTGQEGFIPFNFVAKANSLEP
Kind of assay: fluorescence titration.

Sequence of Abl SH3 (P00519 58-124): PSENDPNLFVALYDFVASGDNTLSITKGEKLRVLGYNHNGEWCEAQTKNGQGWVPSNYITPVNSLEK

Turning to Ac-QLPPGPPGAPKPPPAS-NH2 [MED25], the Kd (commonly the constant that tells how readily two partners part at equilibrium) in assay [1] came out at 2.37 µM; in assay [2] it was 33.5 µM.
